B1: recombinant human RAD51 [human] / His6-Thioredoxin-RAD54-Flag (recombinant human RAD54, wild type) [human] (parent complex)
chain 1: MAMQMQLEANADTSVEEESFGPQPISRLEQCGINANDVKKLEEAGFHTVEAVAYAPKKELINIKGISEAKADKILAEAAKLVPMGFTTATEFHQRRSEIIQITTGSKELDKLLQGGIETGSITEMFGEFRTGKTQICHTLAVTCQLPIDRGGGEGKAMYIDTEGTFRPERLLAVAERYGLSGSDVLDNVAYARAFNTDHQTQLLYQASAMMVESRYALLIVDSATALYRTDYSGRGELSARQMHLARFLRMLLRLADEFGVAVVITNQVVAQVDGAAMFAADPKKPIGGNIIAHASTTRLYLRKGRGETRICKIYDSPCLPEAEAMFAINADGVGDAKD
chain 2: MRRSLAPSQLAKRKPEGRSCDDEDWQPGLVTPRKRKSSSETQIQECFLSPFRKPLSQLTNQPPCLDSSQHEAFIRSILSKPFKVPIPNYQGPLGSRALGLKRAGVRRALHDPLEKDALVLYEPPPLSAHDQLKLDKEKLPVHVVVDPILSKVLRPHQREGVKFLWECVTSRRIPGSHGCIMADEMGLGKTLQCITLMWTLLRQSPECKPEIDKAVVVSPSSLVKNWYNEVGKWLGGRIQPLAIDGGSKDEIDQKLEGFMNQRGARVSSPILIISYETFRLHVGVLQKGSVGLVICDEGHRLKNSENQTYQALDSLNTSRRVLISGTPIQNDLLEYFSLVHFVNSGILGTAHEFKKHFELPILKGRDAAASEADRQLGEERLRELTSIVNRCLIRRTSDILSKYLPVKIEQVVCCRLTPLQTELYKRFLRQAKPAEELLEGKMSVSSLSSITSLKKLCNHPALIYDKCVEEEDGFVGALDLFPPGYSSKALEPQLSGKMLVLDYILAVTRSRSSDKVVLVSNYTQTLDLFEKLCRARRYLYVRLDGTMSIKKRAKVVERFNSPSSPDFVFMLSSKAGGCGLNLIGANRLVMFDPDWNPANDEQAMARVWRDGQKKTCYIYRLLSAGTIEEKIFQRQSHKKALSSCVVDEEQDVERHFSLGELKELFILDEASLSDTHDRLHCRRCVNSRQIRPPPDGSDCTSDLAGWNHCTDKWGLRDEVLQAAWDAASTAITFVFHQRSHEEQRGLR

Variants of: B1
Assay: pull-down (silver-stained gel, quantified); read off a plot

Row | Variant | ratio to parent
1 | chain 2 T41D | ~0.25
2 | chain 2 T41D, chain 2 T59D | ~0.41
3 | chain 2 T700D | ~1.3
4 | chain 2 T59D | ~0.58
5 | chain 2 T41D, chain 2 T59D, chain 2 T700D | ~0.27

Variants of: B1
Assay: as above
Remark: another data set of the same source

Row | Variant | ratio to parent
6 | chain 2 T700D | ~1.2

From PMC10484734, “TLK1-mediated RAD54 phosphorylation spatio-temporally regulates Homologous Recombination Repair” (Nucleic Acids Research, 2023)
